As a reminder, the stoichiometry N is a count of units in the complex or per binding partner.

The values below come from publication PMC4832192.

For this test, the target named is response regulator PhoP of Mycobacterium tuberculosis (M. tuberculosis) (UniProt P71814). The experiment in a line: crystal structure.

In the case of “response regulator PhoP of Mycobacterium tuberculosis (from UniProt P71814 1-247) (natural protein)”, the stoichiometry N was determined as 2.
